Source: patent publication US20060229438A1, “Monoclonal antibody derived peptide inhibitors for mycobacterial dna gyrase” (priority 2002, published 2006)
In brackets after ≈: the same amount, converted by molar mass.

Tests used:
[1] = tested on: ciprofloxacin resistant M. smegmatis mc^2155 strain; assay: Ciprofloxacin susceptibility (MIC50) of resistant strain; assay type: cell-based; conditions: Mycolicibacterium smegmatis
M. smegmatis DNA gyrase = biological target: T1, M. smegmatis DNA gyrase (Mycolicibacterium smegmatis, UniProt Q59556); assay: DNA supercoiling assay, M. smegmatis DNA gyrase; assay type: biochemical
T1 construct: made in house
T1 sequence (Q59556 whole entry): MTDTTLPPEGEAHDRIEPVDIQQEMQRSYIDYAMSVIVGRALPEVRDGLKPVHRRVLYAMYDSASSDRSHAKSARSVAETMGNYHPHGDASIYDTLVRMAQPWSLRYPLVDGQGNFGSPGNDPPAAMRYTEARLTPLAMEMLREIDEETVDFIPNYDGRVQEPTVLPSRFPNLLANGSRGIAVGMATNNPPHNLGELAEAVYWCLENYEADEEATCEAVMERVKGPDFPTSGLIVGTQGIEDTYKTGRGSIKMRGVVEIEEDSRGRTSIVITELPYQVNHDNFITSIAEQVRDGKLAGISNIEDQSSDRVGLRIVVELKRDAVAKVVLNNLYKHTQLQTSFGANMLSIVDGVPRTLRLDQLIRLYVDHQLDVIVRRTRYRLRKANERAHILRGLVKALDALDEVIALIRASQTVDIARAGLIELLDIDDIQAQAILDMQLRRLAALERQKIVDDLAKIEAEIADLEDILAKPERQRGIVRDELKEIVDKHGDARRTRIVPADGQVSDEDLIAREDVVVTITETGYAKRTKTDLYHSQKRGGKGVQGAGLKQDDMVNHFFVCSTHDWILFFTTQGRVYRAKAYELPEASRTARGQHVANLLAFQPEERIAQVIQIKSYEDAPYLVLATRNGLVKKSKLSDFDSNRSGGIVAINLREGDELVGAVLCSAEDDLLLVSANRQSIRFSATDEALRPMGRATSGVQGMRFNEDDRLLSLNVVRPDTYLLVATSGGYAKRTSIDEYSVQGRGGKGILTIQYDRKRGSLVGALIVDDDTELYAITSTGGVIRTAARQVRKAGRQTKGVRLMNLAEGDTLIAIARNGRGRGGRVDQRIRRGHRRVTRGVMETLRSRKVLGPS
T1 sequence (P0C559 2-675, further chain): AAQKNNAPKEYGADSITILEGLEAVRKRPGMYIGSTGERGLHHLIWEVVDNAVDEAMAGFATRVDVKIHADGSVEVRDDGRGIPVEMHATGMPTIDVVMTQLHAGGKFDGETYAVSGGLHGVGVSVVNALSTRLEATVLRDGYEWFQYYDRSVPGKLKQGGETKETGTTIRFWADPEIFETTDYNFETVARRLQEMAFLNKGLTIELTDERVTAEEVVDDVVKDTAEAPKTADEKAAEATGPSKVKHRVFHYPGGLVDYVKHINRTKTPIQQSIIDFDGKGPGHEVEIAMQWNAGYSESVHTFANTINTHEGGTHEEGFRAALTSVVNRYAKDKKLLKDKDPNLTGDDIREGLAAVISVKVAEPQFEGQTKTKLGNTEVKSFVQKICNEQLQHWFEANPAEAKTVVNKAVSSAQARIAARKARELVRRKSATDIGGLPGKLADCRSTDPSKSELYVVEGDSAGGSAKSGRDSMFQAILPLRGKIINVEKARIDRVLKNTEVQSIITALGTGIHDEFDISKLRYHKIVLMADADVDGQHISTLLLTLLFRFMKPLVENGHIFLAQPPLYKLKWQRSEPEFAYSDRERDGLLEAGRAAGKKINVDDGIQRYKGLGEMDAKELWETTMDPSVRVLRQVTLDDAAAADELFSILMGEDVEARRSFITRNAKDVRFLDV

[2] = tested on: DNA gyrase from ciprofloxacin resistant M. smegmatis mc^2155 strain; assay type: biochemical
[3] = biological target: T2, M. smegmatis DNA gyrase A subunit (GyrA) (Mycobacterium smegmatis, UniProt P48354 1-842); assay: SPR (BIAcore 2000), M. smegmatis GyrA immobilized on CM5 chip
T2 construct: also called M. smegmatis GyrA
T2 sequence (P48354 whole entry): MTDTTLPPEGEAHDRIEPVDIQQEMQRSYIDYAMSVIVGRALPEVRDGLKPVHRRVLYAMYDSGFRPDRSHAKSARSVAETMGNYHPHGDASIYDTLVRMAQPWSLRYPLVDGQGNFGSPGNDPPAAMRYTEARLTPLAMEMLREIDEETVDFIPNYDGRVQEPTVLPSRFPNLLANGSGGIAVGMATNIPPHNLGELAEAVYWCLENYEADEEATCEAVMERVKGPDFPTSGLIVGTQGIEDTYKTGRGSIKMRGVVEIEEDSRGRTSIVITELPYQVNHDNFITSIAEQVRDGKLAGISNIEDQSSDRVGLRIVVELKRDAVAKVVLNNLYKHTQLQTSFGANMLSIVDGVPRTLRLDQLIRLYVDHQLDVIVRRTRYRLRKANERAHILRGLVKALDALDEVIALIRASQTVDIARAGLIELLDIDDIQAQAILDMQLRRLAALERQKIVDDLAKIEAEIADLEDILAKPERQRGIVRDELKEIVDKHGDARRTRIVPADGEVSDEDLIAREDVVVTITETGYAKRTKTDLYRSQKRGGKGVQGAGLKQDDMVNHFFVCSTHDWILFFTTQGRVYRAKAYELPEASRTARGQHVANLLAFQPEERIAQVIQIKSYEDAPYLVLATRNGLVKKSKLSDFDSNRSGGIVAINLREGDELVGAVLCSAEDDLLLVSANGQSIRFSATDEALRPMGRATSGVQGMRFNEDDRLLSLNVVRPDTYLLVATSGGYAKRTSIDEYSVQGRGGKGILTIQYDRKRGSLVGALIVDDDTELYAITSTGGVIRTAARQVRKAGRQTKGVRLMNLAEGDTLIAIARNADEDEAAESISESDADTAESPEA
Experimental: Binding parameters were determined by Surface Plasmon Resonance (SPR) spectroscopy using a BIAcore 2000 system, Uppsala, Sweden. The over-expressed and purified M. smegmatis GyrA was immobilized on the CM5 sensor chip at a concentration of 400 resonance units (RU) as per manufacturer's instructions. All measurements were carried out in a continuous flow of HBS buffer (10 mM HEPES, 150 mM NaCl, 5 mM EDTA and 0.05 % Surfactant P-20, pH 7.4) at 10 μl/min. […] The kinetic data were analyzed using the BIA evaluation software (Version 3.0). The surface was regenerated by a pulse of 5 μL of 100 mM NaOH for further experimentation as required.

Molecule: O=C(O)c1cn(C2CC2)c2cc(N3CCNCC3)c(F)cc2c1=O [ciprofloxacin, reference compound]
- MIC50 [1]: 64 µg/mL (≈ 193 µM)
- IC50 (M. smegmatis DNA gyrase): ~15.1 µM

Molecule: KASGYSFTVYYIYWVK [CDR:H1]
- concentration at which DNA supercoiling activity was inhibited [2]: 10 µM
- peptide concentration for complete inhibition of enzyme activity (M. smegmatis DNA gyrase; supercoiling activity): 5 to 10 µM

B1: scFv:GyrA, engineered single chain antibody of MsGyrA:C3 (scFv)
scFv: AQVKLQQSGAELVRPGASVKLSCKASGYSFTVYYIYWVKQRPGQALEWIGEINPSNGGTNFNEKFKTKATLTVDKSTSTVYMQLSSLTSEDSAVYYCTRWGLRRGFAYWGQGTTVTVSSSGGGSGGGGSGGGGSDIELTQSPKSMSMSVGERVTLSCKASENVGTHVSWYQQRPEESPKLLIYGASNRYTGVPDRFTGSGSATDFTLTISNVQAEDLADYHCGQTYSYPFTFGLGTKLEIKRAAAGAPVPYPDPLEPRAA
notes: also called ScFV:GyraA; soluble scFv
- Kd [3]: 0.000217 µM

B2: scFv:GyrA: engineered single chain antibody fragment of MsGyrA:C3, monovalent 30 kDa polypeptide, Seq. ID #2, encoded by pVNUHMscFv (protein)
scFv: B1 scFv
- concentration at which DNA supercoiling activity was inhibited [2]: 0.05 µM
- concentration at which the supercoiling reaction was inhibited (M. smegmatis DNA gyrase): 10 to 20 nM
- inhibition of DNA gyrase supercoiling activity (M. smegmatis DNA gyrase; enzyme preincubated with antibody, relaxed pUC18 DNA): inhibited
